{"source": "the RNAGym collection of RNA variant scans (doi:10.1073/pnas.2313332121)", "parents": {"B1": {"name": "TPR t1 (parent)", "chain": "GACCAAUCUGCCCUCAGAGCUCGAGAACAUCUUCGGAUGCAGAGGAGGCAGGCUUCGGUGGCGCGAUAGCGCCAACGUCCUCAACCUCCAAUGCAUCCCACCACAUGAUGAUGCCUGAAGAGCCUUGGUUUUUUG"}}}
{"variants_of": "B1", "assay": "polymerase ribozyme fitness, log enrichment relative to wild type (log ratio); higher = more active; in vitro selection for triplet polymerase activity", "method_in_brief": "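Mutant libraries of each subunit of a heterodimeric triplet polymerase ribozyme were built by PCR and transcribed. Each library went through one round of in vitro selection in triplicate: annealing with biotinylated primer, partner subunit and triplets, frozen incubation at −7 °C, gel excision of extended constructs, streptavidin-bead capture and RT-PCR. Input and output libraries were Illumina-sequenced; only genotypes with ≥10 input reads and ≥1 read per output were kept. Fitness is log2(genotype enrichment/wild-type enrichment), using inverse-variance-weighted replicate averages.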"}
{"variant": "GACCAAUCAGCCCUCAGAGCUCGAGAACAUCUUCGGAUGCAGAGGAGGCAAACUUCGGUGGCGCGAUAGGGCCAACGUCCUUAACCUCCAAUGCAUCCCACCACAUGAUGAUGCCUGAACAGCCUUGGUUUUUUG", "note": "[U9A G51A G52A C70G C82U G120C]", "polymerase ribozyme fitness (log ratio)": -5.71}
{"variant": "GACCAAUCAGCCCUCAGAGCUCGAGAACAUCUUCGGAUGCAGAGGAGGCAGGCUUCGGUGGCGCGAUAGCACCAACGUCCUCAAACUCCAAUACAUCCCACAACAUGAUGAUGCCUGAAGAGCCUUGGUUUUUUG", "note": "[U9A G71A C85A G93A C102A]", "polymerase ribozyme fitness (log ratio)": -3.84}
{"variant": "GACCAAUCAGCCCUCAGAGCUCGAGAACAUCUUCGGAUGCAGAGGAGGCAGGCUUCGGUGGCGCGAUAGCGCCAACGUCCUCAACCUCCAAUGCAUCCCACCACAUGAUCAUGCCUGAAGAGCCUUGGUAUUUUG", "note": "[U9A G110C U130A]", "polymerase ribozyme fitness (log ratio)": -4.06}
{"variant": "GACCAAUCAGCCCUCAGAGCUCGAGAACAUCUUCGGAUGCAGAGGAGGCAGGCUUCGGUGGCUCGAUAGCGCCAACGUCCUCAACCUCCAAUGCAUCCCACCACAUGAUGAUGCCUGAACAGCCUUGGUUUUUUG", "note": "[U9A G63U G120C]", "polymerase ribozyme fitness (log ratio)": 0.699}
{"variant": "GACCAAUCAGCCCUCAGAGCUCGAGAACAUCUUCGGAUGCAGAGGAGGCAGGCUGGGGUGGCGCGAUAGCGCCAACGUCCUCAACCUCCAAUGCAUCCCACCACAUGAUGAUGCCUGAAGAGCCUUGGUUUUUUG", "note": "[U9A U55G C56G]", "polymerase ribozyme fitness (log ratio)": -0.896}
{"variant": "GACCAAUCAGCCCUCAGAGCUCGAGAACAUCAUCGGAUGCAGAGGAGGCAGGCUUCGGUGGUGCGAUAGCGCCAACGUCCUCAACCUCCAAUGCAUCCCACCACAUGAUGAUGACUGAAGAGCCUUGGUUUUUUG", "note": "[U9A U32A C62U C114A]", "polymerase ribozyme fitness (log ratio)": -4.44}
{"variant": "GACCAAUCAGCCCUCAGAGCUCGAGAACAUCUUCGGAUGCAGAGGAGGCAGGCUUCGGUGGCGCGAUAGCGCCAACGACCUCAACCUCCAAUGCAUCCCACCACAUGAUGAUGCCUGAAGAGCCUUGGUUUUUUG", "note": "[U9A U78A]", "polymerase ribozyme fitness (log ratio)": -0.206}
{"variant": "GACCAAUCCGCCCUCAGAGCUCGAGAGCAUCUUCGGAUGCAGAGGAGGCAGGCUUAGGUGGCGCGAUAGCGCCAACGUCCUCAACCUCCAAAGCAUCCCACCACAUGAUGAUGCCUGAAGAGCCUUGGUUUUUUG", "note": "[U9C A27G C56A U92A]", "polymerase ribozyme fitness (log ratio)": -3.57}
{"variant": "GACCAAUCAGCCCUCAGAGCUCGAGAACAUCUUCGGAUGCAGAGGAGGCAGGCUUCGGUGGCGCGAUAGCGCCAACGUCCUCAACCACCAAUGCAUCCCACCACAUGAUGAUGCCUGAAGAGCCUUGGUUUUUUG", "note": "[U9A U87A]", "polymerase ribozyme fitness (log ratio)": 1.16}
{"variant": "GACCAAUCCGCCCUCAGAGCUCGAGGACAUCUUAGGAUACAGAGGAGGCAGGCUUCGGUGGCGCGAUAGCGCCAACGUCCUCAACCUCCAAUGCAUACCACCACAUGAUGAUGCAUGAAGGGCCUUGGUUUUUUG", "note": "[U9C A26G C34A G39A C97A C115A A121G]", "polymerase ribozyme fitness (log ratio)": -1.6}
{"variant": "GACCAAUCAGCCCUCAGAGCUCGAGAACAUCUUCGGAUGCAGAGGAGGCAGGCUUCGGUGGCGCGAUAUCGCCAACGUCCUCAACCUCCAAUGCAUCCCACCACAUGAUGAUGCCUGAAGAGCCUUGGUUUUUUG", "note": "[U9A G69U]", "polymerase ribozyme fitness (log ratio)": 0.755}
{"variant": "GACCAAUCAGCCCUCAGAGCUCGAGAACACCUUCGGAUGCAGAAGAGGCAGGCUUCUGUAGCGCGAUAGCGCCAACGUCCUCAACCUCCAAUGCAUCCCACCACAUGAUGAGGCCUGAAGAGCCAUGGUUUUUUG", "note": "[U9A U30C G44A G57U G60A U112G U125A]", "polymerase ribozyme fitness (log ratio)": -5.02}
{"variant": "GACCAAUCAGCCCUCAGAGCUCGAGAACAUCUUCGGAUGCAGAGGAGGCAGGCUGCGGUGGCGCGAUAGCGCCAACGUCCUCAACCUCCAAUGCAUCCUACCACAUGAUGAUGCCUGAAGAGCCUUGGUUUUUUG", "note": "[U9A U55G C99U]", "polymerase ribozyme fitness (log ratio)": -2.44}
{"variant": "GACCAAUCAGCCCUCAGAGCUCGAGAACAUCUUCGGAUGCAGAGGAGGCAGGCUUCGGUGGCGCGAUAGCGCCAACGUCCUCAACCUCCAAUGCAUCCCACCACAUGAUGAUGCCUGAACAGCCUUGGUUUUUUG", "note": "[U9A G120C]", "polymerase ribozyme fitness (log ratio)": 1.21}
{"variant": "GACCAAUCAGCCCUCAGAGCUCGAGAACAUCUUCGGAUGCAGAGGAGGCAAGCUUCGGUGGCGCGAUAGCGCCAACGUCCUCAACCUCCAAUGCAUCCCACCACAUGAUGAAGCCUGAAGAGCCUUGGUUUUUUG", "note": "[U9A G51A U112A]", "polymerase ribozyme fitness (log ratio)": -2.45}
{"variant": "GACCAAUCCGCCCUCAGAGCUCGAGAACAUCUUCGGCUGCAGAGGAGGCAGGCUUCGGUGGCGCGAUAGCGCCAACGUCCUCAACCUCCAAUGUAUCCCACCACAUGAUAAUGCCUGAAGAGCCUUGGUUUUUUG", "note": "[U9C A37C C94U G110A]", "polymerase ribozyme fitness (log ratio)": -1.17}
{"variant": "GACCAAUCAGCCCUCAGAGCUCGAGAACAUCUUCGGAUGCAGAGGAGGCAGACUUCGGUGGCGCGAUAGCGCCAACGUCCUCAACCUCCAAUGCAUCCCACCAUAUGAUCAUGCCUGAAGAGCCUUGGUUUUUUG", "note": "[U9A G52A C104U G110C]", "polymerase ribozyme fitness (log ratio)": -3.92}
{"variant": "GACCAAUCAGCCCUCAGAGCUCGAGAACAUCUUCGGAUGCAGAGGAGGCAGGCUUCGGUGGCCCGAUAGCGCCAACGUCCUCAUCCUCCAAUGCAUCCCACCACAUGAUGAUGCCUGAAAAGCCUUGGUUUUUUG", "note": "[U9A G63C A84U G120A]", "polymerase ribozyme fitness (log ratio)": 0.752}
{"variant": "GACCAAUCCGCCCUCAGAGCUCGAGAACGUCUUCGGAUGCAGAGGAGGCAGGCUUCGAUGGCGCGAUAGCGCCAACGUCCUCAACCUCCUAUGCAUCCCACCACAUGAUAAUGCCUGAAGAGCCUUGGUUUUUUG", "note": "[U9C A29G G58A A90U G110A]", "polymerase ribozyme fitness (log ratio)": -4.22}
{"variant": "GACCAAUCAGCCCUCAGAGCUCGAGAACAUCUUCGGAUGCAGAGGAGGCAGGCUUCGAUGACGCGAUAGCGCCAACGUCCUCAAACUCCAAUGCAUCCCACCACAUGAUGAUACCUGAAGAGCCUUGGUUUUUUG", "note": "[U9A G58A G61A C85A G113A]", "polymerase ribozyme fitness (log ratio)": -0.721}
{"variant": "GACCAAUCAGCCCUCAGAGCUCGAGAACAUCUUCGGAUGCAGAGGAGGCAGGCUUCGGUGGCGCGAUAGCACAAACGUCCUCAAACUCCAAUGCAUCCCACCACAUGAUGAUGCCAGAAGAGCCUUGGUUUUUUG", "note": "[U9A G71A C73A C85A U116A]", "polymerase ribozyme fitness (log ratio)": -3.81}
